9 molecules from patent US20090325887A1 (BOARD OF TRUSTEES OF THE UNIVERSITY OF ILLINOIS, published 2009) can be followed below.

For one assay, the target named is Cav3.1 channel (α3.1 subunit). Kind of assay: cell-based or functional assay.
On to LGLLFAFV [γ6 TM1a V45FI47F peptide], for which the “inhibition of Cav3.1 current at 30 µM peptide” value (“inhibition of Cav3.1 current” for short) is 26.3%.
Consider VGATLAVL [γ6 TM1b peptide], for which the “inhibition of Cav3.1 current” value came to 5.5%.
The same measure, in the same setting: the figure for LTTAGAFA [γ4 TM1a peptide] is -3.5%; for VGLTLAVL [γ6 TM1b A50L peptide] it is 15.8%; for FGFLVAIV [γ6 TM1a L41FL43F peptide] it is 20.6%.
For LTLLVAIV [γ6 TM1a G42T peptide], the “inhibition of Cav3.1 current” value came out at 16.4%.

The target of a further assay is Cav1.2 channel (α1.2 subunit, with β2a). Kind of assay: cell-based or functional assay.
As to VTLFFILA [γ1 TM1a peptide], the “inhibition of Cav1.2 current at 30 µM peptide” value amounted to 15.5%.
As for LLILAVGV [γ6 TM1a SCR peptide], the “inhibition of Cav1.2 current at 30 µM peptide” value stood at 3.2%.
Still for that read-out and setting: the figure for VGATLAVL [γ6 TM1b peptide] is 6.7%.
Same read-out and setting: for LTTAGAFA [γ4 TM1a peptide] the value was -2.5%; for VGLFFALA [γ1 TM1a T12GI16A peptide], 27.5%.
